Test results: publication PMC10503415

Columns and labels:
[1] = biological target: full-length wild-type DhmeA from pnEA/3CH-dhmeA, His6 tag removed with 3C protease (Haloferax mediterranei); experiment: dynamic light scattering; wild-type DhmeA 1 mg/mL in 1 M NaCl, 10 mM Tris pH 8.0, 0.5 mM TCEP; Delsa Max Core
[2] = biological target: full-length wild-type DhmeA from pnEA/3CH-dhmeA, His6 tag removed with 3C protease (Haloferax mediterranei); experiment: cryo-EM structure; full-length DhmeA 0.035 mg/mL on Quantifoil grids; data collected at 0° and 44° stage tilt on a Titan Krios; 7-8 Å
[3] = biological target: DhmeA^ΔGG (Haloferax mediterranei); experiment: crystal structure; DhmeA^ΔGG 12-14 mg/mL; sitting drop at 10°C; 0.1 M MES/imidazole pH 6.5, 0.1 M amino acids, 10% PEG 4,000, 20% glycerol; 3.3 Å

Row | stoichiometry N [1] | stoichiometry N [2] | stoichiometry N [3] | Substance
1 | 4 | 6 | – | full-length wild-type DhmeA from pnEA/3CH-dhmeA, His6 tag removed with 3C protease (enzyme)
2 | – | – | 20 | DhmeA^ΔGG (enzyme)
